Reference: US20020147146A1
Non-standard residues stand in square brackets, D forms with d. No end group written: not given here. pS = N[C@@H](COP(=O)(O)O)C(=O)O

Assays:
[1] = test system: T1, peptide #2 KRREILSRRPSYR (non-phosphorylated CREB peptide)
T1 sequence: KRREILSRRPSYR

[2] = test system: T2, peptide #1 KRREILSRRPS(p)YR (derived from CREB protein)
T2 sequence: KRREILSRRPSYR

[3] = test system: T3, 9CREB ILSRRPSYR (non-phosphorylated peptide)
T3 sequence: ILSRRPSYR

[4] = test system: T4, peptide #4 ILSRRPEYR (9ECREB)
T4 sequence: ILSRRPEYR

[5] = test system: T5, peptide #3 ILSRRPS(p)YR (p9CREB)
T5 sequence: ILSRRPSYR

[6] = biological target: purified recombinant rabbit GSK-3 (glycogen synthase kinase-3) (rabbit); test: in vitro kinase assay of purified GSK-3 with PGS-1 substrate and 32P-ATP, Lineweaver-Burk analysis (competitive inhibition)
[7] = biological target: purified recombinant rabbit GSK-3 (glycogen synthase kinase-3) (rabbit); test: cell-based or functional assay

Molecule: purified recombinant rabbit GSK-3 (glycogen synthase kinase-3)
- kinetic property (phosphorylation by GSK-3) [1]: Not a substrate
- kinetic property (phosphorylation by GSK-3) [2]: A substrate
- time course of peptide phosphorylation by GSK-3 [3]: 9CREB and 9ECREB completely failed to be phosphorylated by GSK-3
- time course of peptide phosphorylation by GSK-3 [4]: 9CREB and 9ECREB completely failed to be phosphorylated by GSK-3
- kinetic property (phosphorylation by GSK-3) [5]: A substrate
- time course of peptide phosphorylation by GSK-3 [5]: only the phosphorylated peptide, p9CREB, was a substrate for GSK-3

Molecule: KEAPPAPPQ[pS]P [peptide #8 …(p)P]
- Ki [6]: 76 µM
- IC50, inhibition of GSK-3 (in vitro kinase assay) [7]: 190 µM

Molecule: KRREILARRP[pS]YR [peptide #5 …(p)YR]
- IC50, inhibition of GSK-3 (in vitro kinase assay) [7]: 330 µM
- IC50, inhibition of GSK-3 phosphorylation of PGS-1 substrate (32P incorporation) [7]: 150 µM

Molecule: KEEPPAPPQ[pS]P [peptide #7 …(p)P (patterned after HSF-1 protein)]
- IC50, inhibition of GSK-3 (in vitro kinase assay) [7]: 250 µM
